Laboratory results reported in PMC8396674.
Values joined by “and” are separate entries in the source; they are usually repeats but may differ in a detail not shown here. Identical values can stand only once. One block for each substance: values may come before it.

What was measured:
[1] = biological target: gC1q domain of human otolin-1, natural variant R339S (human); assay: AUC; sedimentation velocity, 0.1, 0.25 and 0.5 mg/mL protein in 10 mM HEPES pH 7.0, 500 mM NaCl, 5% glycerol with 10 mM CaCl2, 20 °C, 50,000 rpm, c(s) analysis; also 0.25 mg/mL with 1 mM DTT
[2] = biological target: gC1q domain of human otolin-1, natural variant Q426R (human); assay: as above
[3] = biological target: gC1q domain of human otolin-1, natural variant R342W (human); assay: as above
[4] = biological target: gC1q domain of human otolin-1, natural variant R342W (human); assay: AUC; sedimentation velocity, 0.1, 0.25 and 0.5 mg/mL protein in 10 mM HEPES pH 7.0, 500 mM NaCl, 5% glycerol with 1 mM EDTA (no Ca2+), 20 °C, 50,000 rpm, c(s) analysis; also 0.25 mg/mL with 1 mM DTT
[5] = biological target: gC1q domain of human otolin-1, natural variant R402P (human); assay: AUC; sedimentation velocity, 0.1, 0.25 and 0.5 mg/mL protein in 10 mM HEPES pH 7.0, 500 mM NaCl, 5% glycerol with 10 mM CaCl2, 20 °C, 50,000 rpm, c(s) analysis; also 0.25 mg/mL with 1 mM DTT
[6] = biological target: gC1q domain of human otolin-1, natural variant R402P (human); assay: AUC; sedimentation velocity, 0.1, 0.25 and 0.5 mg/mL protein in 10 mM HEPES pH 7.0, 500 mM NaCl, 5% glycerol with 1 mM EDTA (no Ca2+), 20 °C, 50,000 rpm, c(s) analysis; also 0.25 mg/mL with 1 mM DTT
[7] = biological target: gC1q domain of human otolin-1 (hOtolC1q), wild type (human); assay: AUC; sedimentation velocity, 0.1, 0.25 and 0.5 mg/mL protein in 10 mM HEPES pH 7.0, 500 mM NaCl, 5% glycerol with 10 mM CaCl2, 20 °C, 50,000 rpm, c(s) analysis; also 0.25 mg/mL with 1 mM DTT

Substance: gC1q domain of human otolin-1, natural variant R339S (domain or fragment)
stoichiometry N [1]: 3

Substance: gC1q domain of human otolin-1, natural variant Q426R (domain or fragment)
stoichiometry N [2]: 3

stoichiometry N [3]: 3
stoichiometry N [4]: 2 and 4
Substance: gC1q domain of human otolin-1, natural variant R342W (domain or fragment)

stoichiometry N [5]: 2
stoichiometry N [6]: 2
Substance: gC1q domain of human otolin-1, natural variant R402P (domain or fragment)

Substance: gC1q domain of human otolin-1 (hOtolC1q), wild type (domain or fragment)
stoichiometry N [7]: 3
